Measured values from patent US20080293626A1 (Johns Hopkins, published 2008).

Biological target: PEDF receptor (unidentified cell surface receptor on bovine retinal capillary endothelial cells)
Assay: cell-based or functional assay

inhibition of VEGF stimulated endothelial cell migration (BRCEC microchemotaxis chamber), IC50: 3 nM
B1: PEDF 44 AA peptide (residues 78-121 of human PEDF) (peptide)
peptide: VLLSPLSVATALSALSLGAEQRTESIIHRALYYDLISSPDIHGT
